In assay [1] the target is 4-1BB (CD137) on human MART-1 reactive T cell clones (TIL 209) (human) (UniProt Q07011). Briefly: cell-based or functional assay.
The target of assay [2] is human SLAMF6 (NTB-A) on human tumor infiltrating lymphocytes / T cells (human) (UniProt Q96DU3). Briefly: cell-based or functional assay.
Sequence of human SLAMF6 (NTB-A) on human tumor infiltrating lymphocytes / T cells (human) (Q96DU3 22-332): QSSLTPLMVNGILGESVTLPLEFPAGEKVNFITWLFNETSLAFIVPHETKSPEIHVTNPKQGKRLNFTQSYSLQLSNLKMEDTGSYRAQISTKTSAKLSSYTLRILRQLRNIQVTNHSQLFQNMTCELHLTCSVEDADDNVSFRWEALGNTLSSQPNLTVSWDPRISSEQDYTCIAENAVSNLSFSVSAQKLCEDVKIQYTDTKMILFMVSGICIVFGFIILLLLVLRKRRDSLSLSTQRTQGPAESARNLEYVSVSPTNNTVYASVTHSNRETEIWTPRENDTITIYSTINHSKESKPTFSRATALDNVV

Sequence of seSLAMF6 (SEQ ID NO: 3; Leu 28-Lys 225 of Q96DU3 fused with a polyhistidine tag at the C-terminus) (Q96DU3 other isoform, or with tags, fused parts or gaps limits assumed): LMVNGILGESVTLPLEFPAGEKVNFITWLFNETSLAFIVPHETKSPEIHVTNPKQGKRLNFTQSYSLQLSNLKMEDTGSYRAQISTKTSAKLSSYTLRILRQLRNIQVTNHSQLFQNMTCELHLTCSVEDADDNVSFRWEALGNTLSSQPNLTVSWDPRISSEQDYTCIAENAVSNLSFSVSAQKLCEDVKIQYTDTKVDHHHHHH
Sequence of 4-1BB (CD137) on human MART-1 reactive T cell clones (TIL 209) (human) (Q07011 24-255 limits assumed): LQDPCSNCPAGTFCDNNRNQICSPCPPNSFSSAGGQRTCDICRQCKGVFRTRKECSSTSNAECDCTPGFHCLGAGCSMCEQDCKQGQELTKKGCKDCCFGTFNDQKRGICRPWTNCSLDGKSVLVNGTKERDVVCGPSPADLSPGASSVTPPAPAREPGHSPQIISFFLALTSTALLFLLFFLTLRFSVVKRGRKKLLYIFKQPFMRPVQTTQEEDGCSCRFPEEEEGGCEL

In assay [1], “4-1BBL expressed on transfected 624mel melanoma cells (mel624/4-1BBL) (from UniProt P41273 1-254) (ligand)” gave an IFNγ secretion of TIL 209 co-cultured with mel624/4-1BBL in CM (mel624/moc: 4,120) of 8600 pg/mL and an IFNγ secretion of TIL 209 co-cultured with mel624/4-1BBL with BSA (mel624/moc: 3,160) of 10500 pg/mL.

Consider “seSLAMF6 (SEQ ID NO: 3; Leu 28-Lys 225 of Q96DU3 fused with a polyhistidine tag at the C-terminus) (from UniProt Q96DU3 28-225) (receptor)”, for which, in assay [2], the CD107a surface expression (lytic degranulation) of human TILs 209 after REP with seSLAMF6 50 µg/ml, co-culture with 526mel is 2 fold; the ratio of cell death and apoptosis (PI / Annexin-V, flow cytometry) of melanoma-activated TILs 209 after IL-2 withdrawal, seSLAMF6 10 µg/ml came to 4%; the ratio of cell death on Day 7 (PI / annexin-V), TILs expanded by REP-IL-2, then seSLAMF6 50 µg/ml lay within 7 to 11%; the ratio of cell death on Day 7 (PI / annexin-V), TILs expanded by REP-seSLAMF6, then seSLAMF6 50 µg/ml is 7 to 11%.

For the origin of these results see US20160333072A1.
